{"source": "paper PMC5605572", "about": "“Phosphorylation of Suppressor of Hairless impedes its DNA-binding activity”", "conditions_in_all_cases": "protein: ivt; label: radiolabelled (EMSA); 5' overhang 4 nt on each strand", "key": {"[1]": {"molecular_target": "Su(H) S269A (Drosophila melanogaster, UniProt P28159 1-594, S269A)", "sequence (P28159 whole entry S269A)": "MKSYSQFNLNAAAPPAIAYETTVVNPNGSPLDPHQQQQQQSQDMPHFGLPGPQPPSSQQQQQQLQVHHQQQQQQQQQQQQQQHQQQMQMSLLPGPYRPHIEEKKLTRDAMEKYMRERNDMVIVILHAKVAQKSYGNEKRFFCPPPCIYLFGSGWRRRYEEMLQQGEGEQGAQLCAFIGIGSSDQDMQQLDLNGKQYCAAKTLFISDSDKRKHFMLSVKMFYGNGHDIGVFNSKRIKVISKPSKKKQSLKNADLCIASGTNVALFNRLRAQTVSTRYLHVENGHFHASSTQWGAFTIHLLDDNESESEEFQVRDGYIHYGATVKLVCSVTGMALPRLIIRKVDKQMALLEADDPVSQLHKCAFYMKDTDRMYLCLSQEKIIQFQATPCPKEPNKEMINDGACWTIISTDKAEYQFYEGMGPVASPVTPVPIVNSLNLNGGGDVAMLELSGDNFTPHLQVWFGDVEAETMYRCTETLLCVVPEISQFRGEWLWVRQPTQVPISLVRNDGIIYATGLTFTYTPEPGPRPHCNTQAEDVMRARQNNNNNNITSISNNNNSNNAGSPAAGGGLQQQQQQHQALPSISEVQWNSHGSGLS", "test": "EMSA; no obvious difference from wt; self-competition with unlabelled oligo; EMSA: 10 mM Tris-HCl pH 7.5, 50 mM NaCl, 1 mM EDTA, 0.0275 ug/ul salmon sperm DNA; ITC: 50 mM sodium phosphate pH 6.5, 150 mM NaCl, 10 C, 10 uM Su(H) in cell, 100 uM DNA in syringe"}, "[2]": {"molecular_target": "Su(H) wt (Drosophila melanogaster, UniProt P28159 1-594)", "sequence (P28159 whole entry)": "as the sequence (P28159 whole entry S269A) above, with A269S counted along it", "test": "EMSA; self-competition with unlabelled oligo; EMSA: 10 mM Tris-HCl pH 7.5, 50 mM NaCl, 1 mM EDTA, 0.0275 ug/ul salmon sperm DNA; ITC: 50 mM sodium phosphate pH 6.5, 150 mM NaCl, 10 C, 10 uM Su(H) in cell, 100 uM DNA in syringe"}, "[3]": {"molecular_target": "Su(H) R266H (Drosophila melanogaster, UniProt P28159 1-594, R266H)", "sequence (P28159 whole entry R266H)": "as the sequence (P28159 whole entry S269A) above, with R266H, A269S counted along it", "test": "EMSA; EMSA: 10 mM Tris-HCl pH 7.5, 50 mM NaCl, 1 mM EDTA, 0.0275 ug/ul salmon sperm DNA; ITC: 50 mM sodium phosphate pH 6.5, 150 mM NaCl, 10 C, 10 uM Su(H) in cell, 100 uM DNA in syringe"}}}
{"binder": "E(spl)m8-S1 (dsDNA) DNA 1: TTGGGTGGCTCGTGGCGTGGGAACCGAGCTGAAAG DNA 2: GGTTCTTTCAGCTCGGTTCCCACGCCACGAGCCAC", "values": [{"measurement": "binding result", "setting": "[1]", "result": "binds"}, {"measurement": "binding result", "setting": "[2]", "result": "binds"}, {"measurement": "binding result", "setting": "[3]", "result": "no binding"}]}
